The nature of series [1]: Phase 1 single and multiple ascending dose trial of inhaled (nebulized) CA28 in healthy volunteers. In kind it is in vivo, human. How it is done:
In the single ascending dose part of the trial, 16 subjects were enrolled in four cohorts of four subjects each.
Four subjects were enrolled in the first cohort of the multiple ascending dose part of the trial. These subjects were to receive 14 consecutive days of treatment with a 60 mg/day dose of the drug. […] The trial was paused and subsequently resumed, with subjects receiving 30 mg/day. […] The trial was then terminated.

The target of series [2] is T1, complement component C3 (human, UniProt P01024 23-1663). Put plainly: cell-based or functional assay.
Series [3] has as its target T1, complement component C3. Put plainly: cell-based or functional assay. The source holds these as a separate data set.

With `CC[C@H](C)[C@H](NC(C)=O)C(=O)N[C@H]1CSSC[C@@H](C(=O)N[C@H](C(N)=O)[C@@H](C)O)NC(=O)[C@H](CCCNC(=N)N)NC(=O)[C@H](Cc2cnc[nH]2)NC(=O)[C@H](C)NC(=O)CNC(=O)[C@H](Cc2c[nH]c3ccccc23)NC(=O)[C@H](CC(=O)O)NC(=O)[C@H](CCC(N)=O)NC(=O)[C@H](Cc2cn(C)c3ccccc23)NC(=O)[C@H](C(C)C)NC1=O` [CA28], the adverse event result in series [1] (inhaled 30 mg/day, after 10 days) was “Another subject developed signs and symptoms consistent with a potential bacterial infection”; in series [1] (inhaled 60 mg/day, after nine days), “one subject developed signs and symptoms consistent with a potential bacterial infection”.

B1: CA28-2TS-BF (peptide)
peptide: ICVWQDWGAHRCTK
modifications: not fully specified; N-terminal acetyl; (1Me)Trp at position 4; disulfide Cys2-Cys12; AEEAc between Thr13 and Lys; Lys side chain linked by a carbamate to one end of a bifunctional linear 40 kD PEG of the TS type; C-terminal amide
For B1, in the series with complement component C3 [2], the “IC50 (read off the curve) (alternative pathway complement activation, LPS-coated plate, C3b deposition ELISA) [B]” value is around 400 nM.

B2: CA28-AEEAc-Lys-(PEG40k) (peptide)
peptide: ICVWQDWGAHRCTK
modifications: not fully specified; N-terminal acetyl; (1Me)Trp at position 4; disulfide Cys2-Cys12; AEEAc between Thr13 and Lys; linear monofunctional 40 kD PEG (NOF ME-400GS) on the Lys side chain; C-terminal amide
With B2, the “IC50 (read off the curve) (classical pathway complement activation, C3b deposition ELISA with human plasma)” value in the series with complement component C3 [3] was around 700 nM.

B3: CA28-AEEAc-Lys(mPEG40K-carbonyl) (peptide)
peptide: ICVWQDWGAHRCTK
modifications: not fully specified; N-terminal acetyl; (1Me)Trp at position 4; disulfide Cys2-Cys12; AEEAc between Thr13 and Lys; 40 kD mPEG (NOF ME-400TS) on the Lys15 side chain; C-terminal amide
On to B3, for which the “IC50 (read off the curve) (classical pathway complement activation, C3b deposition ELISA with human plasma)” value with complement component C3 [3] was around 700 nM.

B4: CA28-AEEAc-Lys(mPEG40K-succinyl) (peptide)
peptide: ICVWQDWGAHRCTK
modifications: not fully specified; N-terminal acetyl; (1Me)Trp at position 4; disulfide Cys2-Cys12; AEEAc between Thr13 and Lys; 40 kD mPEG (NOF ME-400CS) on the Lys15 side chain; C-terminal amide
For B4, in the series with complement component C3 [3], the “IC50 (read off the curve) (classical pathway complement activation, C3b deposition ELISA with human plasma)” value was around 700 nM.

B5: CA28-AEEAc-Lys(mPEG40K-hexanoyl) (peptide)
peptide: ICVWQDWGAHRCTK
modifications: not fully specified; N-terminal acetyl; (1Me)Trp at position 4; disulfide Cys2-Cys12; AEEAc between Thr13 and Lys; 40 kD mPEG (NOF ME-400HS) on the Lys15 side chain; C-terminal amide
Consider B5, for which the “IC50 (read off the curve) (classical pathway complement activation, C3b deposition ELISA with human plasma)” value with complement component C3 [3] was around 700 nM.

(Values after US20260183365A1, “COMBINATION THERAPY FOR C3 INHIBITION” (Apellis Pharmaceuticals, Inc., priority 2016, published 2026).)
